Measurements published in paper PMC8796303 (ACS Central Science, 2021).

Target: SARS-CoV-2 spike protein (wild type) (SARS-CoV-2, ancestral (wild type, …, UniProt P0DTC2))
Assay: lateral flow strip assay

B1: REGN10933 (receptor binding domain binding antibody) (antibody, V domains shown)
VH: QVQLVESGGGLVKPGGSLRLSCAASGFTFSDYYMSWIRQAPGKGLEWVSYITYSGSTIYYADSVKGRFTISRDNAKSSLYLQMNSLRAEDTAVYYCARDRGTTMVPFDYWGQGTLVTVSS
VL: DIQMTQSPSSLSASVGDRVTITCQASQDITNYLNWYQQKPGKAPKLLIYAASNLETGVPSRFSGSGSGTDFTFTISGLQPEDIATYYCQQYDNLPLTFGGGTKVEIK
B1: binds.
